Data taken from patent US20250206792.

T1: Bovine Beta-casein (SEQ ID NO: 3)
T1 chain: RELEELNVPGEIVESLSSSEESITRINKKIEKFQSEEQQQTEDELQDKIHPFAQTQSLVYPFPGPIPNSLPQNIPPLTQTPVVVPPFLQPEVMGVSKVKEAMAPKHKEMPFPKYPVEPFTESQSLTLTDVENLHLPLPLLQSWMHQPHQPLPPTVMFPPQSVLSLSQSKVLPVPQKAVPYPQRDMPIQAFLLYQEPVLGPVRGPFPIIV

T2: Bovine Alpha-s1-casein (SEQ ID NO: 1)
T2 chain: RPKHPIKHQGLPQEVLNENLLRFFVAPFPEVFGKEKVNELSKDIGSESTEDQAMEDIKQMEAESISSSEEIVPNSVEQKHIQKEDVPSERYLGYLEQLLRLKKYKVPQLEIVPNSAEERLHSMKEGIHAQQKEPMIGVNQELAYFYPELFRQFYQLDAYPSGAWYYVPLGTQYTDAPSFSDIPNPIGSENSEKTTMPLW

B1: PKNB1_Cgl2751 (Corynebacterium glutamicum) (SEQ ID NO: 9) (protein)
chain: MYEVLGVIAHGGMGWIYLANDRNVSGRIVVLKGMMAQSSVQDQGTAEAEREFLADITHPGIVKAYNFIDDPRVPGGFIVMEYVNGPSLKDRCKAQPDGVLRVDLAIGYILELLPAMDYLHQRGVVYNDLKPENVIATEDQVKLIDLGAVTGIGAFGYIYGTKGFQAPEVATHGPSISSDIFTIGRTLAALTMPLPVEDGVLAPGIPSPKNSPLLRRHLSFYRLLQRATADDPQHRFRNVSELRTQLYGVLREILAVRDGKQYPPQHSLFSPQRSTFGTKHLVF
B2: YabT (GenBank: SPU13583.1) (SEQ ID NO: 5) (protein)
chain: MLNWTPKLQSLSTPFAKLSTAAITPTGPAIREATLQFEKYAQEGACWQMMNDALTSLACSLKPGTTIKGKWNGNTYTLRKQLGKGANGIVYLAETSDGHVALKVSDDSLSITSEVNVLKSFSKAQSVTMGPSFFDTDDAYIPSANTKVSFYAMEYIKGPLLLKYVSDKGAEWIPVLMIQLLSSLSVLHQQGWIFGDLKPDNLIVTGPPARIRCIDVGGTTKEGRAIKEYTEFYDRGYWGYGTRKAEPSYDLFAVAMIMINSVHKKEFKKTNQPKEQLRSLIEGNPLLQKYKKALFSALNGDYQSADEMKKDMLDAGQKAAQRKQPIKASPQPATRQRQQKPRQGKITKTRYTPKQKPAKSGGLFETTLIVISVLALYFAYIIFFLI
B3: PrkD (Bacillus subtilis 168 | BSU_02030) (SEQ ID NO: 7) (protein)
chain: MALKLLKKLLFDRPLKNGVILNHQYKIEECLGMGGYGLVYLCTDILAQTPYVLKQLRPTKAKKEKEKVRFQQEIKLLKNIHHPQIPGFIDEFIIDGQAYYVMQFIEGENIEELLFFRKQPFTELMALQLISQLLEIIEYLHDRLIFHSDIRTPNIIINDGRLCLIDFGLAKQLTPEEMEEIKVRKQDDFFDLGETLLFLLYSQYKGKKKKNGTWLEELTLTKEVTLLLKRLLGIEEEYQHTASIREDLNRAIQSVT
B4: PrkC (Bacillus subtilis) (SEQ ID NO: 8) (protein)
chain: MSGPVPSRARVYTDVNTHRPREYWDYESHVVEWGNQDDYQLVRKLGRGKYSEVFEAINITNNEKVVVKILKPVKKKKIKREIKILENLRGGPNIITLADIVKDPVSRTPALVFEHVNNTDFKQLYQTLTDYDIRFYMYEILKALDYCHSMGIMHRDVKPHNVMIDHEHRKLRLIDWGLAEFYHPGQEYNVRVASRYFKGPELLVDYQMYDYSLDMWSLGCMLASMIFRKEPFFHGHDNYDQLVRIAKVLGTEDLYDYIDKYNIELDPRFNDILGRHSRKRWERFVHSENQHLVSPEALDFLDKLLRYDHQSRLTAREAMEHPYFYTVVKDQARMGSSSMPGGSTPVSSANMMSGISSVPTPSPLGPLAGSPVIAAANPLGMPVPAAAGAQ

Columns and labels:
[1] = biological target: T1, Bovine Beta-casein (SEQ ID NO: 3)
[2] = biological target: T2, Bovine Alpha-s1-casein (SEQ ID NO: 1)

Row | Protein | number of phosphorylated sites similar to native bovine phosphorylation sites, MS [1] | number of sites phosphorylated, in vitro kinase reaction, MS [1] | phosphorylation at *S30 (native site), MS grade, in vitro kinase reaction [1] | phosphorylation at T39, MS grade, in vitro kinase reaction [1] | number of phosphorylated sites similar to native bovine phosphorylation sites, MS [2] | number of sites phosphorylated, in vitro kinase reaction, MS [2] | phosphorylation at *S130 (native site), MS grade, in vitro kinase reaction [2] | phosphorylation at S103, MS grade, in vitro kinase reaction [2] | phosphorylation at S137, MS grade, in vitro kinase reaction [2] | phosphorylation at Y109, MS grade, in vitro kinase reaction [2] | phosphorylation at Y159, MS grade, in vitro kinase reaction [2] | number of phosphorylated sites similar to native phosphorylation sites, MS [1] | phosphorylation at *S32 (native site), MS grade, in vitro kinase reaction [1] | phosphorylation at *S50 (native site), MS grade, in vitro kinase reaction [1] | number of phosphorylated sites similar to native phosphorylation sites, MS [2] | phosphorylation at *S56 (native site), MS grade, in vitro kinase reaction [2] | phosphorylation at *S61 (native site), MS grade, in vitro kinase reaction [2] | phosphorylation at *S63 (native site), MS grade, in vitro kinase reaction [2] | phosphorylation at *S79 (native site), MS grade, in vitro kinase reaction [2] | phosphorylation at *S81 (native site), MS grade, in vitro kinase reaction [2] | also measured
1 | B1 | 1 sites | PKNB and PrkC phosphorylated 2 sites in β-casein each | + | +++ | 1 sites | PKNB and PrkC phosphorylated 6 sites in αs1-casein each | + | + | + | + | + | – | – | – | – | – | – | – | – | – | phosphorylation at Y188, MS grade, in vitro kinase reaction [2]: +
2 | B2 | – | PrkD and YabT phosphorylated 5 sites each | ++ | ++ | – | PrkD and YabT phosphorylated 13 and 10 sites, respectively | – | + | + | – | – | with 3 sites showing similarity to native phosphorylation sites | ++ | ++ | with 9 and 8 sites showing similarity to native phosphorylation sites | +++ | ++ | ++ | +++ | +++ | phosphorylation at T56, MS grade, in vitro kinase reaction [1]: +; phosphorylation at *S82 (native site), MS grade, in vitro kinase reaction [2]: +++; phosphorylation at *S83 (native site), MS grade, in vitro kinase reaction [2]: +++; phosphorylation at *S90 (native site), MS grade, in vitro kinase reaction [2]: ++
3 | B3 | – | PrkD and YabT phosphorylated 5 sites each | + | + | – | PrkD and YabT phosphorylated 13 and 10 sites, respectively | +++ | + | + | – | + | with 3 sites showing similarity to native phosphorylation sites | + | + | with 9 and 8 sites showing similarity to native phosphorylation sites | ++ | + | + | + | + | phosphorylation at S337, MS grade, in vitro kinase reaction [1]: +; phosphorylation at *S82 (native site), MS grade, in vitro kinase reaction [2]: +; phosphorylation at *S83 (native site), MS grade, in vitro kinase reaction [2]: +; phosphorylation at *S90 (native site), MS grade, in vitro kinase reaction [2]: +; phosphorylation at Y161, MS grade, in vitro kinase reaction [2]: +
4 | B4 | 1 sites | PKNB and PrkC phosphorylated 2 sites in β-casein each | + | ++ | 2 sites | PKNB and PrkC phosphorylated 6 sites in αs1-casein each | + | + | + | + | + | – | – | – | – | + | – | – | – | – | –
